Measured values reported in the supplement of paper PMC9170038.

Test system: MS2 coat protein
Test: apparent KD of MS2 coat protein; designed switch direction (-1 OFF switch, 1 ON switch): 1; higher = weaker reporter binding
Summary of the method: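 Stalled E. coli RNA polymerase transcribed designed RNA switches on Illumina chips, which were then titrated with SNAP-549-labelled MS2 coat protein, doubling from 0.7 or 1.5 nM to 3 µM. Steps lasted from 0.8–1.5 h at the lowest concentration to 10–20 min at the highest. The apparent KD is each design's median over clusters of curve-fitted normalised fluorescence.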

[1] = input ligand: microRNA oligo, concentration not stated
[2] = Eterna round: R95, input ligand: FMN 200 uM
[3] = Eterna round: R95, input ligand: microRNA oligo, concentration not stated
[4] = Eterna round: R95, input ligand: none

| Sequence | apparent KD of MS2 coat protein (input ligand: FMN 200 uM) [nM] | apparent KD of MS2 coat protein [1] [nM] | apparent KD of MS2 coat protein (input ligand: none) [nM] | apparent KD of MS2 coat protein [2] [nM] | apparent KD of MS2 coat protein [3] [nM] | apparent KD of MS2 coat protein [4] [nM] |
| --- | --- | --- | --- | --- | --- | --- |
| UUACAGCACGGGUAGGAUAUGUAGGGUGGUACAUGAGGAUCACCCAUGUAUCCACCCUUCUAACGGCAGAAGGGCCUGUCGCUGC [Riarve] (Eterna round: R96, puzzle: Same State 2) | 28.3 | 11.2 | 27.5 | – | – | – |
| AGUGGACAUGAGGAUCACCCAUGUAUGCUGGCAUGAGGAUAUCCGAUUCGUUUCGACUAAGGAGAAGGCAUAGCCC [Geonla] (Eterna round: R96, puzzle: Same State 1) | 37 | 98.9 | 116 | – | – | – |
| GUUACAUGAGGAUCACCCAUGUAUGUGUGGGAGUAAGUGUCUUAGGAUAUCUAUGAUGUAAUUUAAGAGAAGGAAGAUUGUUGU [JMF's solution 76] (Eterna round: R96, puzzle: Same State NG 3) | 135 | 128 | 150 | – | – | – |
| GGUUUAGCCAGGUGCAGUUGCACCUGAAAACAUGAGGAUCACCCAUGUUUGGGACAAGCUUUGCUCCUCGUCUUUCC [Isusreraar] (puzzle: Sensor for hsa-mir-208a) | – | – | – | 267 | 38.7 | 364 |
| AUAAGGCAAGCUUUUUUCUCGUAGUAUAAACAUGAGGAUCACCCAUGUGCCCACCCUGGAUCUUUGGAUCGCAGAAC [Vetera] (puzzle: Sensor for hsa-mir-208a) | – | – | – | 26.8 | 16.5 | 26.3 |
| AGUCCAGCCUGAGCUGGACAAAAGCAUGUACAUGAGGAUCACCCAUGUCAUGUACAAGCUUUUUGCUCGUCUUAAGA [Mat - hsa-mir-208a - Mod of JL - D21] (puzzle: Sensor for hsa-mir-208a) | – | – | – | 561 | 16.5 | 933 |
| CUACGAGCGCCACAGGAUAUACUGAGACUCACAUGAGGAUCACCCAUGUCCAAUUCUCCCAAAUAGUAGAAGGGUGACGCGCUCA [Soordire] (puzzle: Same State 2) | – | – | – | 51.1 | 565 | 546 |
| GCGGACUUCACAUGAGGAUCACCCAUGUUGCGGAGACGCAAUGAGGAUAUCGAUGGGUUUCCCGUCGAGAAGGCAUAAAUCCGC [JL SSNG3 3.93 mod 5] (Eterna round: R96, puzzle: Same State NG 3) | 25.2 | 30 | 49.8 | – | – | – |
| GGUAGGUUACUACCAUACAUGAGGAUCACCCAUGUAAAUGGGAAGGAUAUGGUACCUAUUUGGUACCAGAAGGUCCAAAUAAUU [Mat - Same State NG 3 - JL Mod - D96] (Eterna round: R96, puzzle: Same State NG 3) | 156 | 645 | 1170 | – | – | – |
| AACCCAAUGGAAGGAUAUGGCACCUUAUUGGUGCCAGAAGGUCCUAACAUGAGGAUCACCCAUGUGGGCCGGUCUUAAGACCGG [Fiskers NG1ss - 8] (Eterna round: R96, puzzle: Same State NG 1) | 142 | 382 | 456 | – | – | – |
| GCUGCAAUUAACGCCUACAUGAGGAUCACCCAUGUAUGUAGGCAGGAUAUCGUUUGCAAAGCAAACGAGAAGGGCCGUAGUAGC [Mat - Same State NG 3 - JL Mod - D34] (Eterna round: R96, puzzle: Same State NG 3) | 28.9 | 48.9 | 73.8 | – | – | – |
| GUGGUCAGACAUGAGGAUCACCCAUGUGGAAUAAAUAACGAACAGGAUAUUCAAUAUAGGAUAUAGAAGAAGGGUUGAUUGGUG (Eterna round: R96, puzzle: Same State NG 3) | 204 | 171 | 187 | – | – | – |
| UUGAGGAAUUAAGGAUAUUGAGUACAUAUGUUUAACAUGAGGAUCACCCAUGUGGGUUGCGGUAUCGAGAAGGUAAAUUACUAG [JL SSNG2 1.46] (Eterna round: R96, puzzle: Same State NG 2) | 141 | 83.8 | 168 | – | – | – |
| GUGGUGUAGAUACAGGAUAUGUUGCUCGUAACAUGAGGAUCACCCAUGUAUCUAUGAGAUUAAAUGCAGAAGGGUGCACACCACG [Maerveen] (Eterna round: R96, puzzle: Same State 2) | 22 | 220 | 358 | – | – | – |
| ACUUGCUUUUUGCUCGUAUAUUGUCCGUUACAUGAGGAUCACCCAUGUGUGUAUUGUGUGUUGUUUUUGAUACGUGU [JR_SHM208A_Sub070] (puzzle: Sensor for hsa-mir-208a) | – | – | – | 56 | 62.8 | 74.2 |
| AACAAUCUAUCUCAGGAUAUCAUGUCAAAGACAUGAGGAUCACCCAUGUACCAGGAAACUGGUUAUGAGAAGGGAGAUAGAUUGU [Mat - Same State 2 - Mod - D23] (puzzle: Same State 2) | – | – | – | 157 | 68.2 | 268 |

| Sequence | apparent KD of MS2 coat protein (input ligand: FMN 200 uM) [nM] | apparent KD of MS2 coat protein [1] [nM] | apparent KD of MS2 coat protein (input ligand: none) [nM] | apparent KD of MS2 coat protein [2] [nM] | apparent KD of MS2 coat protein [3] [nM] | apparent KD of MS2 coat protein [4] [nM] |
| --- | --- | --- | --- | --- | --- | --- |
| UUGAAGAACUAAGGAUAUUGAAUACAUAUGUUUAACAUGAGGAUCACCCAUGUGGGUUGCGGUAUCGAGAAGGUAGAUUACUAG [Mat - Same State NG 2 - JL mod - D10] (Eterna round: R96, puzzle: Same State NG 2) | – | 83.4 | – | – | – | – |
| GUAUCUUCAGGUUGCAAUGCUCGUCGGAUACAUGAGGAUCACCCAUGUUAUUAACCUGUGCUUGCGCGGGUAUGAUU [Photon Torp-01] (puzzle: Sensor for hsa-mir-208a) | – | – | – | 21.8 | 32.5 | 23.3 |
| GCAGGACAUGAGGAUCACCCAUGUUCCAAAUAUUGAGGAUAUGGAUACGGUAUAUCCGAACCAGAAGGCAACCUGC [SS1 Teenbexe 21] (puzzle: Same State 1) | – | – | – | 25.3 | 22.1 | 23.3 |
| GGAGCCGGCAGGCAGGAUAUUCAUAUUAAAACAUGAGGAUCACCCAUGUAGGCCAGAAGGCCUUGGGAGAAGGGCCAUCGGCUCG [Xeonanis - 13] (puzzle: Same State 2) | – | – | – | 27.8 | 225 | 569 |
| GUAGCAUACCGAGGAUAUUCAUAUUACAUGAGGAUCACCCAUGUUAGGCCACAUUAGUGGCCUUGGGAGAAGGCGGAAUGCUAC [Xeonanis - 20 Mod40] (Eterna round: R96, puzzle: Same State NG 2) | 14.6 | 69.7 | 104 | – | – | – |
| GUAGCAUACCGAGGAUAUUCAUACAUGAGGAUCACCCAUGUUAAUAGGCCACAUUAGUGGCCUUGGGAGAAGGCGGAAUGCUAC [Xeonanis - 20 Mod46] (Eterna round: R96, puzzle: Same State NG 2) | 14.1 | 10.7 | 16.6 | – | – | – |
| UGUUGUAUUACAGGAUAUCUAUUAGUUUUUUUUAGAGAAGGGUAUUCACAUGAGGAUCACCCAUGUAUAUACGAGGAAGUUGUG [JMF's solution 96] (Eterna round: R96, puzzle: Same State NG 1) | – | 36.8 | – | – | – | – |
| GCUACCAAAGAAGCCAACAUGAGGAUCACCCAUGUAUGUUGGUAGGAUAUCGUAUGCAAAGCAUACGAGAAGGGCUAAGGUAGC [Mat - Same State NG 3 - JL Mod - D78] (Eterna round: R96, puzzle: Same State NG 3) | – | 86.9 | – | – | – | – |
| AGAAACAAAGGCUGAAAUAAUACAUGAGGAUCACCCAUGUCACAGGAUAUCCAGAUAAUAUUCGAGGAGAAGGGUGCAGCCAAC [Esanusdiat] (Eterna round: R96, puzzle: Same State NG 3) | 19.1 | 59.6 | 79.7 | – | – | – |
| AUAAAACAUGAGGAUCACCCAUGUCAACAAAGUCGAGGAUAUGGGCAAAUAAAAUAUGAACCAGAAGGCGAAUAAU [salish99_ss1_r3_019] (puzzle: Same State 1) | – | – | – | 35.8 | 221 | 310 |
| UGUUAACAUGAGGAUCACCCAUGUCAAAUGAAUCGAGGAUAUGGGAAGUAAUAAGAUAAACCAGAAGGCGAAGUUG [Altered State 1-16 - Jieux - Same State 1] (puzzle: Same State 1) | – | – | – | 54.7 | 302 | 229 |
| GGUAAACAUGAGGAUCACCCAUGUAAUAAUAUGGGAGGAUAUGGGAAUUAAUUAAUUAAACCAGAAGGCCUAAUUG [Mat - Same State 1 - D85] (Eterna round: R96, puzzle: Same State 1) | 32 | 104 | 135 | – | – | – |
| CGCCAGAGAACAGGAUAUGGGCCGCAGCCUAUGGGCCGCGAACUCACAUGAGGAUCACCCAUGUCCCAGAAGGGUUCCUGGCUG [Tiusonon] (Eterna round: R96, puzzle: Same State NG 2) | 154 | 596 | 2070 | – | – | – |
| AGUCCAGCGAAAGCUGGACAAGAGCAUGUACAUGAGGAUCACCCAUGUUCAUGUACAAGCUUUUUGCUCGUCUUAAA [JL mod - D95 - 2] (puzzle: Sensor for hsa-mir-208a) | – | – | – | 384 | 14.3 | 439 |
| GUUACAUGAGGAUCACCCAUGUAUGUGUGGGAGUAAGUGUCUUAGGAUAUCUAUGAAUUAAUUUAAGAGAAGGAAGAUUGUUGU [JMF's solution 73] (Eterna round: R96, puzzle: Same State NG 3) | 107 | 73.3 | 112 | – | – | – |
